Experimental data as given in patent US20200264197A1 (FRAUNHOFER GESELLSCHAFT ZUR F RDERUNG DER ANGEWANDTEN …, published 2020).
Numbered stars: 1 amine (or outer) side, 2 acyl side, 3 side chain; on linkers, the order of the positions; unused ones are H or OH. Square brackets hold non-standard residues; d marks the D form. Ends that are not written are not given here. βAsp = O=C(O)[C@H](CC(=O)[*:2])N[*:1]; pGlu = O=C1CC[C@@H](C(=O)O)N1

T1: pE3-isoD7-Aβ(3-18)
T1 peptide: [pGlu]FRH[βAsp]SGYEVHHQKLV

T2: pE3-Aβ(3-18)
T2 peptide: [pGlu]FRHDSGYEVHHQKLV

T3: Mouse isoD7-Aβ(1-18) (mouse)
T3 peptide: DAEFGH[βAsp]SGFEVRHQKLV

T4: Aβ(1-18) (human)
T4 construct: also called wildtype peptide Aβ(1-18)
T4 peptide: DAEFRHDSGYEVHHQKLV

T5: isod7-Aβ(1-17) (human, D-isoaspartate at position 7)
T5 construct: also called D-isoaspartate isomer containing peptide derivative
T5 peptide: DAEFRHXSGYEVHHQKL

B1: monoclonal antibody K11 (antibody, mouse IgG1, kappa, V domains shown)
VH: QVQLKESGPGLVAPSQSLSITCTVSGFSLTSYGVHWVRQPPGKGLEWLGALWASGNTDYSSTLMSRLSISKDNSKSQVFLKMNSLQTDDTAMYYCARDRGILTGGYFDVWGAGTTVTVSS
VL: DIVMSQSPTSLAVSAGEKVTMSCKSSQSLLNSRNRKNYLAWYQQKPGQSPKLLIYWASTRDSGVPDRFTGSGSGTDFTLTISSVQAEDLAVYYCKQSYNLRTFGGGTKLEIKR
notes: Mouse monoclonal antibody from a hybridoma; also called clone K11; anti isoAsp7-Aβ antibody K11
B2: monoclonal antibody K119 (antibody, mouse IgG2a, kappa, V domains shown)
VH: EVKLVESGGGLVQPGGSLRLSCATSGFTFTDYYMSWVRQPPGKALEWLGFIRNKANGYTTEYSASVKGRFTISRDNSQSILYLQMNTLRTEDSATYYCTRDIPTIMDYWGQGTSVTVSS
VL: DIVMSQSPSSLAVSAGEKATMSCKSSQSLFNSRTRKNYVAWLQQKPGQSPKLLISWASTRESGVPDRFTGSGSGTDFALTITNVQAEDLAVYYCKQSYNLRAFGGGTKLEITR
notes: Mouse monoclonal antibody from a hybridoma

How the values were obtained:
pE3-isoD7-Aβ(3-18) = target: T1, pE3-isoD7-Aβ(3-18); test: SPR, antibody captured on goat anti-mouse IgG, peptide as analyte
From the text: (§1) In order to bind analyzing antibodies K11 and K119 to a CMS sensor Chip (GE Healthcare, Product code BR100012), approximately 15,000-20,000 RU of goat anti mouse IgG (Thermo Fisher Scientific, PA1 28555) were immobilized first. To immobilize the anti-mouse IgG, the carboxymethylated dextran surface of the sensor chip was activated by mixing 0.1 M N-hydroxysuccinimide (NHS) with 0.4 M N-ethyl-N′-(dimethylaminopropyl)carbodiimide hydrochloride (EDC) 1:1. EDC/NHS was applied to the sensor chip for 10 minutes with a flow rate of 10 μl/min. Goat anti mouse IgG was diluted to 50 μg/ml in 10 mM Sodium acetate, pH 5.5 and injected for 2×3 minutes with a flow rate of 10 μl/min. After deactivation with 1 M ethanolamine, pH 8.5 for 2×7 minutes with a flow rate of 10 μl/min, 0.1 M glycine, pH 1.7 was applied to the sensor chip with a flow rate of 30 μl/min for 3 minutes, followed by a washing step with HBS-EP buffer (GE Healthcare, Product code BR100188).
(§2) Binding of about 2,000 RU anti isoAsp7-Aβ antibodies occurred with a flow rate of 10 μl/min. To achieve this, antibodies were diluted to 25 μg/ml in HBS-EP buffer and applied to the sensor chip, followed by washing with HBS-EP until the RU signal remains constant.
(§3) Kinetic constants were determined by applying Aβ peptides at different concentrations and calculated from the combined set of data by using BIAevaluation software (Biacore AB) (FIG. 2A and FIG. 3).

isoD7-Aβ(1-40) = target: T6, isoD7-Aβ(1-40) (isoAsp at position 7); test: as above
T6 construct: Synthetic peptide
From the text: as §1, §2, §3

pE3-Aβ(3-18) = target: T2, pE3-Aβ(3-18); test: as above
From the text: as §1, §2, §3

Mouse isoD7-Aβ(1-18) = target: T3, Mouse isoD7-Aβ(1-18); test: as above
From the text: as §1, §2, §3

Aβ(1-40) = target: T7, Aβ(1-40); test: as above
T7 construct: Synthetic peptide; also called wildtype Aβ(1-40)
From the text: as §1, §2, §3

Aβ(1-30) = target: T8, Aβ(1-30); test: sandwich ELISA: K11 immobilised at 2 µg/ml as capture, peptide serially diluted, HRP-conjugated 4G8 as detection, absorbance 450/540 nm
T8 construct: also called non-modified Aβ peptide
Experimental: FIG. 8: Sandwich ELISA for quantification of isoAsp7-Aβ and total Aβ concentrations in biological samples. Capture antibodies K11 (A) and 3D6 (B) were diluted to 2 μg/ml and immobilized on microtiter plates overnight at 4° C. Blocking occurred for 2 hours at room temperature. isoD7-Aβ(1-30) (SEQ ID NO: 51) and Aβ(1-30) (SEQ ID NO: 52) were serially diluted and added to the wells in duplicate. After an incubation period of 2 hours at 4° C., plates were washed six times with TBS-T. HRP-conjugated anti Aβ antibody clone 4G8 was added in a final concentration of 1 μg/ml and incubated for 1 hour at 4° C. After washing with TBS-T, a color reaction with TMB was performed and stopped by the addition of 1.2 N H₂SO₄. The standard curve was calculated from measured absorption at 450/540 nm by a 4-Parameter-Logistic-Fit: y=(A2+(A1−A2)/(1+(x/x₀)\hat{ }p).
In order to determine the amounts of isoD7-Aβ in biological samples, an indirect Sandwich ELISA was established. Therefore, K11 was diluted in PBS to 2μg/ml and immobilized on polystyrene 96-well microtiter plates overnight at 4° C. Blocking occurred for 2 hours at 4° C. with ELISA Blocker (Thermo Fisher Scientific). […] Absorption at 450/540 nm was determined by a Tecan Sunrise plate reader. The standard curve was calculated from measured absorption by a 4-Parameter-Logistic-Fit: y=(A2+(A1−A2)/(1+(x/x0)\hat{ }p).

Aβ(1-18) [1] = target: T4, Aβ(1-18); test: SPR, antibody captured on goat anti-mouse IgG, peptide as analyte; SPR
Experimental: (§4) FIG. 2: Determination of binding constants of immobilized K11 with different Aβ-peptides by SPR analysis. 1,500-2,000 RU of antibody K11 were immobilized on a CMS chip by binding to goat anti mouse IgG. Monomeric Aβ peptides were injected in varying concentrations. KD values were calculated by using single-cycle kinetic analysis of BIAevaluation software. A—isoD7-Aβ(1-18) was applied at 1 nM, 3 nM, 9 nM, 27 nM, 81 nM and 243 nM. B—isod7-Aβ(1-17) was applied at 1 nM, 3 nM, 9 nM, 27 nM, 81 nM and 243 nM. C—Aβ(1-18) was applied at […], 30 nM, 90 nM, 270 nM, 810 nM and 2430 nM.
as §1, with “After deactivation with 1 M ethanolamine, pH 8.5 for 2×7 minutes with a flow rate of 10 μl/min, 0.1 M glycine, pH 1.7 was applied to the sensor chip with a flow rate of 30 μl/min for 3 minutes, followed by a washing step with HBS-EP buffer (GE Healthcare, Product code BR100188).” left out

isod7-Aβ(1-17) = target: T5, isod7-Aβ(1-17); test: as above
Experimental: as §4
as §1, with “After deactivation with 1 M ethanolamine, pH 8.5 for 2×7 minutes with a flow rate of 10 μl/min, 0.1 M glycine, pH 1.7 was applied to the sensor chip with a flow rate of 30 μl/min for 3 minutes, followed by a washing step with HBS-EP buffer (GE Healthcare, Product code BR100188).” left out

Aβ(1-18) [2] = target: T4, Aβ(1-18); test: SPR, antibody captured on goat anti-mouse IgG, peptide as analyte; SPR; very weak, KD 931,000 nM
From the text: as §1
Binding of about 2,000 RU anti isoAsp7-Aβ antibodies occurred with a flow rate of 10 μl/min. […]
as §3

T8 sequence (peptide, as listed by the source): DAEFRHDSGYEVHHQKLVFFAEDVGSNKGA
T6 sequence (peptide, as listed by the source): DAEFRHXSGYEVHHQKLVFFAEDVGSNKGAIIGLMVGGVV
T7 sequence (peptide, as listed by the source): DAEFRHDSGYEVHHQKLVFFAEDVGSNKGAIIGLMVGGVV

| Binder | Kd (pE3-isoD7-Aβ(3-18)) | Kd (isoD7-Aβ(1-40)) | Kd (pE3-Aβ(3-18)) | Kd (Mouse isoD7-Aβ(1-18)) | Kd (Aβ(1-40)) | binding result (Aβ(1-30)) | Kd (Aβ(1-18) [1]) | Kd (isod7-Aβ(1-17)) | Kd (Aβ(1-18) [2]) |
| --- | --- | --- | --- | --- | --- | --- | --- | --- | --- |
| B1 | 1.7 nM | 3.5 nM | 402 nM | 153 nM | 1670 nM | no binding (tested: 140 pg/ml) | 2700 nM | 2690 nM |  |
| B2 |  |  |  |  |  |  |  |  | 931000 nM |
